# Square brackets hold non-standard residues; d marks the D form. pY = N[C@@H](Cc1ccc(OP(=O)(O)O)cc1)C(=O)O
# Key:
# Assay in all cases: NMR titration
# [1] = target: Itk SH3 domain (wild type)
# Itk SH3(E189Q) domain = target: Itk SH3(E189Q) domain
# Itk SH3(Y180E) domain = target: Itk SH3(Y180E) domain
# Itk SH3(E189K) domain = target: Itk SH3(E189K) domain
# Itk SH2(I282A) domain = target: Itk SH2(I282A) domain
molecule,measurement,setting,value
Itk SH2 domain (wild type) (domain or fragment),Kd,[1],670 µM
same,Kd,Itk SH3(E189Q) domain,2050 µM
Itk SH2(K280A) domain (domain or fragment),fold drop in affinity against SH3(Y180E)/wild type SH2,Itk SH3(Y180E) domain,10 fold
Itk SH2(K309E) domain (domain or fragment),Kd,Itk SH3(E189K) domain,1080 µM
same,Kd,[1],1850 µM
Itk SH2(R332A) domain (domain or fragment),Kd,[1],1800 µM
Ac-AD[pY]EPP-NH2 (SMILES CC(=O)N[C@@H](C)C(=O)N[C@@H](CC(=O)O)C(=O)N[C@@H](Cc1ccc(OP(=O)(O)O)cc1)C(=O)N[C@@H](CCC(=O)O)C(=O)N1CCC[C@H]1C(=O)N1CCC[C@H]1C(N)=O) [phosphopeptide derived from Slp76 (Ac-ADpYEPP-NH2)],Kd,Itk SH2(I282A) domain,1000 µM

# Source: publication PMC2810249
